This is an account of results in patent US20240400654A1.

“And” between values parts separate entries of the source, which are not always exact repeats. Equal values may be shown once.

The chains are these.
B1: KB001 mouse Fab VH S61C (Fab, V domains shown)
VH: EVQLKQSGPGLVAPSQSLSITCTVSGFSLSIYSVHWVRQPPGKGLEWLGMIWGGGSSDYNCALKSRLSISKDNSKSQVFLKMNSLQTDDTAMYYCARNGNFYAMDYWGQGTSVTVSS
VL: QIVLTQSPAIMSASLGERVTMTCTASSSVSSSFLHWYQQKPGSSPQLWIYSTSNLASGVPARFSGSGSGTSYSLTISSMEAEDAATYYCHQYHHSPYIYTFGGGTKLEIK
B2: KB001 mouse Fab VH A62R (Fab, V domains shown)
VH: EVQLKQSGPGLVAPSQSLSITCTVSGFSLSIYSVHWVRQPPGKGLEWLGMIWGGGSSDYNSRLKSRLSISKDNSKSQVFLKMNSLQTDDTAMYYCARNGNFYAMDYWGQGTSVTVSS
VL: QIVLTQSPAIMSASLGERVTMTCTASSSVSSSFLHWYQQKPGSSPQLWIYSTSNLASGVPARFSGSGSGTSYSLTISSMEAEDAATYYCHQYHHSPYIYTFGGGTKLEIK
B3: KB001 mouse Fab VH A62M (Fab, V domains shown)
VH: EVQLKQSGPGLVAPSQSLSITCTVSGFSLSIYSVHWVRQPPGKGLEWLGMIWGGGSSDYNSMLKSRLSISKDNSKSQVFLKMNSLQTDDTAMYYCARNGNFYAMDYWGQGTSVTVSS
VL: QIVLTQSPAIMSASLGERVTMTCTASSSVSSSFLHWYQQKPGSSPQLWIYSTSNLASGVPARFSGSGSGTSYSLTISSMEAEDAATYYCHQYHHSPYIYTFGGGTKLEIK
B4: KB001 mouse Fab VH A62F (Fab, V domains shown)
VH: EVQLKQSGPGLVAPSQSLSITCTVSGFSLSIYSVHWVRQPPGKGLEWLGMIWGGGSSDYNSFLKSRLSISKDNSKSQVFLKMNSLQTDDTAMYYCARNGNFYAMDYWGQGTSVTVSS
VL: QIVLTQSPAIMSASLGERVTMTCTASSSVSSSFLHWYQQKPGSSPQLWIYSTSNLASGVPARFSGSGSGTSYSLTISSMEAEDAATYYCHQYHHSPYIYTFGGGTKLEIK
B5: KB001 mouse Fab VH A62N (Fab, V domains shown)
VH: EVQLKQSGPGLVAPSQSLSITCTVSGFSLSIYSVHWVRQPPGKGLEWLGMIWGGGSSDYNSNLKSRLSISKDNSKSQVFLKMNSLQTDDTAMYYCARNGNFYAMDYWGQGTSVTVSS
VL: QIVLTQSPAIMSASLGERVTMTCTASSSVSSSFLHWYQQKPGSSPQLWIYSTSNLASGVPARFSGSGSGTSYSLTISSMEAEDAATYYCHQYHHSPYIYTFGGGTKLEIK
B6: KB001 mouse Fab VH A62G (Fab, V domains shown)
VH: EVQLKQSGPGLVAPSQSLSITCTVSGFSLSIYSVHWVRQPPGKGLEWLGMIWGGGSSDYNSGLKSRLSISKDNSKSQVFLKMNSLQTDDTAMYYCARNGNFYAMDYWGQGTSVTVSS
VL: QIVLTQSPAIMSASLGERVTMTCTASSSVSSSFLHWYQQKPGSSPQLWIYSTSNLASGVPARFSGSGSGTSYSLTISSMEAEDAATYYCHQYHHSPYIYTFGGGTKLEIK
B7: KB001 mouse Fab VH S61K (Fab, V domains shown)
VH: EVQLKQSGPGLVAPSQSLSITCTVSGFSLSIYSVHWVRQPPGKGLEWLGMIWGGGSSDYNKALKSRLSISKDNSKSQVFLKMNSLQTDDTAMYYCARNGNFYAMDYWGQGTSVTVSS
VL: QIVLTQSPAIMSASLGERVTMTCTASSSVSSSFLHWYQQKPGSSPQLWIYSTSNLASGVPARFSGSGSGTSYSLTISSMEAEDAATYYCHQYHHSPYIYTFGGGTKLEIK
B8: KB001 mouse Fab VH A62L (Fab, V domains shown)
VH: EVQLKQSGPGLVAPSQSLSITCTVSGFSLSIYSVHWVRQPPGKGLEWLGMIWGGGSSDYNSLLKSRLSISKDNSKSQVFLKMNSLQTDDTAMYYCARNGNFYAMDYWGQGTSVTVSS
VL: QIVLTQSPAIMSASLGERVTMTCTASSSVSSSFLHWYQQKPGSSPQLWIYSTSNLASGVPARFSGSGSGTSYSLTISSMEAEDAATYYCHQYHHSPYIYTFGGGTKLEIK
B9: KB001 mouse Fab VH L63H (Fab, V domains shown)
VH: EVQLKQSGPGLVAPSQSLSITCTVSGFSLSIYSVHWVRQPPGKGLEWLGMIWGGGSSDYNSAHKSRLSISKDNSKSQVFLKMNSLQTDDTAMYYCARNGNFYAMDYWGQGTSVTVSS
VL: QIVLTQSPAIMSASLGERVTMTCTASSSVSSSFLHWYQQKPGSSPQLWIYSTSNLASGVPARFSGSGSGTSYSLTISSMEAEDAATYYCHQYHHSPYIYTFGGGTKLEIK
B10: KB001 mouse Fab VH A62I (Fab, V domains shown)
VH: EVQLKQSGPGLVAPSQSLSITCTVSGFSLSIYSVHWVRQPPGKGLEWLGMIWGGGSSDYNSILKSRLSISKDNSKSQVFLKMNSLQTDDTAMYYCARNGNFYAMDYWGQGTSVTVSS
VL: QIVLTQSPAIMSASLGERVTMTCTASSSVSSSFLHWYQQKPGSSPQLWIYSTSNLASGVPARFSGSGSGTSYSLTISSMEAEDAATYYCHQYHHSPYIYTFGGGTKLEIK
B11: KB001 mouse Fab VH A62E (Fab, V domains shown)
VH: EVQLKQSGPGLVAPSQSLSITCTVSGFSLSIYSVHWVRQPPGKGLEWLGMIWGGGSSDYNSELKSRLSISKDNSKSQVFLKMNSLQTDDTAMYYCARNGNFYAMDYWGQGTSVTVSS
VL: QIVLTQSPAIMSASLGERVTMTCTASSSVSSSFLHWYQQKPGSSPQLWIYSTSNLASGVPARFSGSGSGTSYSLTISSMEAEDAATYYCHQYHHSPYIYTFGGGTKLEIK
B12: KB001 mouse Fab VH A62D (Fab, V domains shown)
VH: EVQLKQSGPGLVAPSQSLSITCTVSGFSLSIYSVHWVRQPPGKGLEWLGMIWGGGSSDYNSDLKSRLSISKDNSKSQVFLKMNSLQTDDTAMYYCARNGNFYAMDYWGQGTSVTVSS
VL: QIVLTQSPAIMSASLGERVTMTCTASSSVSSSFLHWYQQKPGSSPQLWIYSTSNLASGVPARFSGSGSGTSYSLTISSMEAEDAATYYCHQYHHSPYIYTFGGGTKLEIK
B13: KB001 mouse Fab VH S61H (Fab, V domains shown)
VH: EVQLKQSGPGLVAPSQSLSITCTVSGFSLSIYSVHWVRQPPGKGLEWLGMIWGGGSSDYNHALKSRLSISKDNSKSQVFLKMNSLQTDDTAMYYCARNGNFYAMDYWGQGTSVTVSS
VL: QIVLTQSPAIMSASLGERVTMTCTASSSVSSSFLHWYQQKPGSSPQLWIYSTSNLASGVPARFSGSGSGTSYSLTISSMEAEDAATYYCHQYHHSPYIYTFGGGTKLEIK
B14: KB001 mouse Fab VH L63V (Fab, V domains shown)
VH: EVQLKQSGPGLVAPSQSLSITCTVSGFSLSIYSVHWVRQPPGKGLEWLGMIWGGGSSDYNSAVKSRLSISKDNSKSQVFLKMNSLQTDDTAMYYCARNGNFYAMDYWGQGTSVTVSS
VL: QIVLTQSPAIMSASLGERVTMTCTASSSVSSSFLHWYQQKPGSSPQLWIYSTSNLASGVPARFSGSGSGTSYSLTISSMEAEDAATYYCHQYHHSPYIYTFGGGTKLEIK
B15: KB001 mouse Fab VH L63Y (Fab, V domains shown)
VH: EVQLKQSGPGLVAPSQSLSITCTVSGFSLSIYSVHWVRQPPGKGLEWLGMIWGGGSSDYNSAYKSRLSISKDNSKSQVFLKMNSLQTDDTAMYYCARNGNFYAMDYWGQGTSVTVSS
VL: QIVLTQSPAIMSASLGERVTMTCTASSSVSSSFLHWYQQKPGSSPQLWIYSTSNLASGVPARFSGSGSGTSYSLTISSMEAEDAATYYCHQYHHSPYIYTFGGGTKLEIK
B16: KB001 mouse Fab VH A62V (Fab, V domains shown)
VH: EVQLKQSGPGLVAPSQSLSITCTVSGFSLSIYSVHWVRQPPGKGLEWLGMIWGGGSSDYNSVLKSRLSISKDNSKSQVFLKMNSLQTDDTAMYYCARNGNFYAMDYWGQGTSVTVSS
VL: QIVLTQSPAIMSASLGERVTMTCTASSSVSSSFLHWYQQKPGSSPQLWIYSTSNLASGVPARFSGSGSGTSYSLTISSMEAEDAATYYCHQYHHSPYIYTFGGGTKLEIK
B17: KB001 mouse Fab VH A62Q (Fab, V domains shown)
VH: EVQLKQSGPGLVAPSQSLSITCTVSGFSLSIYSVHWVRQPPGKGLEWLGMIWGGGSSDYNSQLKSRLSISKDNSKSQVFLKMNSLQTDDTAMYYCARNGNFYAMDYWGQGTSVTVSS
VL: QIVLTQSPAIMSASLGERVTMTCTASSSVSSSFLHWYQQKPGSSPQLWIYSTSNLASGVPARFSGSGSGTSYSLTISSMEAEDAATYYCHQYHHSPYIYTFGGGTKLEIK
B18: KB001 mouse Fab VH A62H (Fab, V domains shown)
VH: EVQLKQSGPGLVAPSQSLSITCTVSGFSLSIYSVHWVRQPPGKGLEWLGMIWGGGSSDYNSHLKSRLSISKDNSKSQVFLKMNSLQTDDTAMYYCARNGNFYAMDYWGQGTSVTVSS
VL: QIVLTQSPAIMSASLGERVTMTCTASSSVSSSFLHWYQQKPGSSPQLWIYSTSNLASGVPARFSGSGSGTSYSLTISSMEAEDAATYYCHQYHHSPYIYTFGGGTKLEIK
B19: KB001 mouse Fab VH S61L (Fab, V domains shown)
VH: EVQLKQSGPGLVAPSQSLSITCTVSGFSLSIYSVHWVRQPPGKGLEWLGMIWGGGSSDYNLALKSRLSISKDNSKSQVFLKMNSLQTDDTAMYYCARNGNFYAMDYWGQGTSVTVSS
VL: QIVLTQSPAIMSASLGERVTMTCTASSSVSSSFLHWYQQKPGSSPQLWIYSTSNLASGVPARFSGSGSGTSYSLTISSMEAEDAATYYCHQYHHSPYIYTFGGGTKLEIK

In the test the target is HRgpA-6H (Porphyromonas gingivalis) (UniProt P28784). In words: ELISA, coated HRgpA-6H.
Sequence of UniProt P28784 (P28784 228-860 limits assumed): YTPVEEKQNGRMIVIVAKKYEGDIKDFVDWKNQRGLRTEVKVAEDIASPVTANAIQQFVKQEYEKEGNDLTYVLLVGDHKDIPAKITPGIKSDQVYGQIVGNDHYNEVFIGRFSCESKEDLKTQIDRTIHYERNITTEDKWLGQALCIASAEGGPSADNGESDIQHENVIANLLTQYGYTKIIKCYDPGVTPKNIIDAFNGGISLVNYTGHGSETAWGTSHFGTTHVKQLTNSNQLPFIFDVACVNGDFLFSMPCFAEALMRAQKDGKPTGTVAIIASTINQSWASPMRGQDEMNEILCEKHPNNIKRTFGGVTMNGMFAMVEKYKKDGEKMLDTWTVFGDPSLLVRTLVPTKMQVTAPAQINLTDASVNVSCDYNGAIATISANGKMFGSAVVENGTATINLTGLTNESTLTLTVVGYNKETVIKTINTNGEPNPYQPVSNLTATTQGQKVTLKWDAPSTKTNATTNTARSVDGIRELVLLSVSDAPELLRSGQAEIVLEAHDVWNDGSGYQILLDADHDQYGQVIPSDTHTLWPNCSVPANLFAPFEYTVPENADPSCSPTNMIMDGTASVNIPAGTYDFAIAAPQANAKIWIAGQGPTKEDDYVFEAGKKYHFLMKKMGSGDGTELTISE
As to B1, the OD450 nm worked out at 0.431 and the Ratio OD(Variant)/OD(WT) was 0.873.

Take B2: the OD450 nm is 0.733 and 0.847 and 0.809; the Ratio OD(Variant)/OD(WT) was 0.839 and 0.969 and 0.926.

On to B3, for which the OD450 nm is 0.77 and 0.735; the Ratio OD(Variant)/OD(WT) is 0.881 and 0.841.

For B4, the OD450 nm was 0.843 and 0.733; the Ratio OD(Variant)/OD(WT) is 0.965 and 0.839.

With B5, the OD450 nm was 0.721 and 0.799; the Ratio OD(Variant)/OD(WT) was 0.825 and 0.914.

Regarding B6, the OD450 nm is 0.813 and 0.785; the Ratio OD(Variant)/OD(WT) is 0.93 and 0.898.

Regarding B7, the OD450 nm is 0.49 and the Ratio OD(Variant)/OD(WT) was 0.993.

For B8, the OD450 nm worked out at 0.812 and the Ratio OD(Variant)/OD(WT) amounted to 0.929.

For the molecule B9, the OD450 nm is 0.818 and 0.843 and 0.822; the Ratio OD(Variant)/OD(WT) is 0.936 and 0.965 and 0.941.

On to B10, for which the OD450 nm was 0.702 and 0.808; the Ratio OD(Variant)/OD(WT) was 0.803 and 0.924.

Regarding B11, the OD450 nm was 0.854 and the Ratio OD(Variant)/OD(WT) is 0.977.

Consider B12, for which the OD450 nm was 0.853 and 0.851; the Ratio OD(Variant)/OD(WT) is 0.976 and 0.974.

Regarding B13, the OD450 nm was determined as 0.469 and the Ratio OD(Variant)/OD(WT) was 0.95.

In the case of B14, the OD450 nm is 0.784 and 0.77 and 0.778; the Ratio OD(Variant)/OD(WT) was 0.897 and 0.881 and 0.89.

Regarding B15, the OD450 nm was 0.836 and 0.846 and 0.801; the Ratio OD(Variant)/OD(WT) was 0.957 and 0.968 and 0.916.

As to B16, the OD450 nm was 0.742 and 0.757; the Ratio OD(Variant)/OD(WT) was 0.849 and 0.866.

For B17, the OD450 nm is 0.737 and 0.869; the Ratio OD(Variant)/OD(WT) was 0.843 and 0.994.

For B18, the OD450 nm was 0.819 and 0.834 and 0.844; the Ratio OD(Variant)/OD(WT) is 0.937 and 0.954 and 0.966.

For the molecule B19, the OD450 nm was determined as 0.448 and the Ratio OD(Variant)/OD(WT) is 0.908.
